US12059437B2, “Methods and compositions for hematopoietic stem cell mobilization” (The Regents of the University of California, priority 2019, dated 2024)

Assays:
[1] = test system: HSCs (cKIT+lineage-SCA1+CD27+FLK2- cells); assay: HSC mobilization to the blood in mice (perfused blood, flow cytometry); type: in vivo, mouse
Procedure: FIG. 1A: Experimental design for 2-hour HSC mobilization with sildenafil citrate plus AMD3100 (top), or 5-day GCSF treatment (bottom). GCSF was administered to mice once daily for 4 days (250 μg/kg). Sildenafil citrate was administered via oral gavage (OG; 3 mg/kg) once, 1 hr prior to a single subcutaneous (SQ) injection of AMD3100 (2.5 mg/kg). […]
FIG. 2E: Experimental design for HSC mobilization with multiple daily doses of sildenafil citrate. Sildenafil citrate was administered orally (OG) at 10 mg/kg once daily for 3 days. AMD3100 (2.5 mg/kg-5 mg/kg) was injected subcutaneously (SQ) 1 hour after the third sildenafil citrate dose, followed 1 hour later by blood perfusion and analysis.
Mobilization/tissue isolation. Mice were treated with subcutaneous (SQ) injections of rhGCSF (Amgen, Thousand Oaks, CA, 250 μg/kg) or a single dose of AMD3100 (Sigma, 2.5 mg/kg or 5 mg/kg where specified), or by oral gavage (OG) with sildenafil citrate (Viagra®; Sigma; 3, 10 or 30 mg/kg) (Motta et al., 2015) as indicated. Maximum blood was obtained by perfusing the mouse with PBS/20 mM EDTA through the left ventricle, clipping the right atrium and collecting the pooled perfused blood in the chest cavity. The total blood was processed for cell counts and flow cytometry analysis, as described previously (Smith-Berdan et al., 2011, 2015). Briefly, cells were pelleted by centrifugation, washed with 2% donor calf serum in PBS to remove EDTA, then incubated with fluorescently conjugated antibodies for flow cytometry analysis or resuspended in HBSS for transplantation into conditioned recipients.
(§1) Flow cytometry. Cell labeling was performed on ice in 1× PBS with 5 mM EDTA and 2% serum. Antibodies used are listed in the supplemental table. Samples were analyzed for donor chimerism (detectable by either GFP or antibodies targeted at the CD45.1/2 locus) on an LSRII or AriaIII (Becton Dickinson, San Jose, CA), as described previously (Beaudin et al., 2016; Boyer et al., 2011, 2019; Leung et al., 2019; Smith-Berdan et al., 2011, 2015; Ugarte et al., 2015).

HSCs = assay: Transplantation of mobilized blood into irradiated recipients (reconstitution, donor chimerism); type: in vivo, mouse; conditions: compared to sildenafil citrate plus AMD3100; total donor chimerism 20 weeks post-transplantation
Description: FIG. 1E: Donor chimerism over 5 months in lethally irradiated mice transplanted with blood from mice mobilized with AMD3100 alone or with both sildenafil citrate and AMD3100 as in the schedule shown in FIG. 1A. UBC-GFP mice were used as the mobilized donor mice, enabling identification of donor derived (GFP+) cells versus the unlabeled cells of the wild-type recipients. N=5-7 mice per cohort in 3 independent experiments. Paired t-test; *p<0.05 and **p<0.01.
FIGS. 11 and 1J: Long-term multilineage engraftment upon serial transplantation of bone marrow cells from the primary recipients in FIGS. 1E-1H into secondary, lethally irradiated wt hosts. Total donor chimerism in the peripheral blood over the course of the experiment is shown on the left. Quantification of donor-derived B, T and GM cells, platelets and erythrocytes 20 weeks post-transplantation is shown on the right. Data represent three independent experiments, N=9-12 mice per cohort. Unpaired t-test; *p<0.05, **p<0.01, ***p<0.001.
Transplantation of mobilized HSPCs. […]
as §1, with “Cell labeling was performed on ice in 1× PBS with 5 mM EDTA and 2% serum. Antibodies used are listed in the supplemental table.” left out

Molecule	increase of numbers of phenotypic HSCs compared to control mice ([1]; AMD3100 single SQ injection alone or plus a single oral sildenafil citrate dose (2-hour protocol), total perfused blood)	numbers of HSCs in the blood 4 hrs post-treatment ([1]; perfusion and blood analysis 4 hours post AMD3100)	HSC mobilization ([1]; single subcutaneous dose)	numbers of phenotypic HSCs in the blood compared to sildenafil citrate plus AMD3100 ([1]; 5-day GCSF protocol)	numbers of HSCs in the bloodstream ([1]; 1 day after four consecutive days of G-CSF injections)	mobilization of HSCs and/or HPCs ([1]; FIGS. 2P and 2Q, GCSF 250 μg/kg for 4 days, AMD3100 5 mg/kg for 1 hour)	reconstitution of recipients by blood from mobilized donors (HSCs)
c1cc(CN2CCCNCCNCCCNCC2)ccc1CN1CCCNCCNCCCNCC1 [AMD3100, reference compound]	2.9 fold	return to steady-state levels	modest, but reproducible, HSC mobilization				
G-CSF: granulocyte-colony stimulating factor, rhGCSF (Amgen), standard mobilizing agent (protein, UniProt P09919 31-207, looked up) Granulocyte …: TPLGPASSLPQSFLLKCLEQVRKIQGDGAALQEKLVSECATYKLCHPEELVLLGHSLGIPWAPLSSCPSQALQLAGCLSQLHSGLFLYQGLLQALEGISPELGPTLDTLQLDVADFATTIWQQMEELGMAPALQPTQGAMPAFASAFQRRAGGVLVASHLQSFLEVSYRVLRHLAQP				did not lead to significantly higher numbers of phenotypic HSCs	~3,400 HSCs/mouse	effectively mobilizes HSCs and/or HPCs	reconstituted recipients more robustly
